Our source for the protein stability index values is the supplement of paper PMC10724198.

For this series, the system named is Saccharomyces cerevisiae. The experiment in a line: protein stability index of tFT-peptide fusion (C-terminal peptide) (PSI (0-1 scale)); higher = more stable (slower turnover). The note with it: temperature: 30 C. The protocol: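 MPS profiling in S. cerevisiae of the yeast C-terminome library: the last 12 aa of each annotated ORF are fused to the C-terminus of a sfGFP-mCherry timer, after a GGGS linker. Cells are FACS-sorted into 8 mCherry/sfGFP bins and deep-sequenced. PSI runs from 0 (unstable) to 1 (stable); wild type and das1Δ backgrounds, two technical replicates each.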

The mark [1] stands for this setting: genetic background: das1 deletion.

± gives the standard deviation of the averaged measurements.

Regarding GIGFTNTSKKIA [RCL1 C-terminal 12 aa], the protein stability index is 0.708 ± 0.027 under setting [1] and 0.5373 ± 0.0012 (genetic background: wild type).
The corresponding values for GINLNISYSSGK [ULI1 C-terminal 12 aa] are 0.706 ± 0.012 and 0.681 ± 0.0044.
The corresponding values for GIPNFKLKVTQI [GAB1 C-terminal 12 aa] are 0.6896 ± 0.0036 and 0.706 ± 0.041.
As to GKDRPSRFNSKK [TEX1 C-terminal 12 aa], the protein stability index by setting is: under setting [1], 0.693 ± 0.011; (genetic background: wild type) 0.667 ± 0.038.
Consider GKEVRKLRPENQ [ILV5 C-terminal 12 aa], for which the protein stability index under setting [1] is 0.691 ± 0.014 and the protein stability index (genetic background: wild type) was 0.654 ± 0.024.
On the same counts, the results for GKGKKKMVVLEW [ETR1 C-terminal 12 aa] are 0.692 ± 0.026 and 0.712 ± 0.018.
The corresponding values for GKRRMNPGPSVQ [RPS30A C-terminal 12 aa] are 0.696 ± 0.0085 and 0.6758 ± 0.0052.
In the case of GKSHPFHSSDRY [YJL211C C-terminal 12 aa], the protein stability index by setting is: under setting [1], 0.6884 ± 0.0033; (genetic background: wild type) 0.699 ± 0.023.
For GLGDFGDRYYCV [FUR1 C-terminal 12 aa], the protein stability index was determined as 0.7105 ± 0.0059 under setting [1] and 0.697 ± 0.007 (genetic background: wild type).
The corresponding values for “GLLRKGLVKRDI [YHR193C-A C-terminal 12 aa]” are 0.6883 ± 0.0029 and 0.677 ± 0.033.
On the same counts, the results for GLVGQHQGGGSM [RTC5 C-terminal 12 aa] are 0.68 ± 0.0094 and 0.6633 ± 0.0038.
On the same counts, the results for GNISLLYSQGRL [RSC6 C-terminal 12 aa] are 0.723 ± 0.013 and 0.714 ± 0.053.
Take GNLSLDWLNLNL [GAT1 C-terminal 12 aa]: the protein stability index by setting is: under setting [1], 0.735 ± 0.01; (genetic background: wild type) 0.7689 ± 0.0048.
The corresponding values for GNNKKKRSVKRE [PBN1 C-terminal 12 aa] are 0.688 ± 0.013 and 0.717 ± 0.036.
The corresponding values for GPEPPRYDEISS [CSR2 C-terminal 12 aa] are 0.705 ± 0.058 and 0.635 ± 0.025.
On the same counts, the results for GPSIIMTLYLTL [ARE1 C-terminal 12 aa] are 0.496 ± 0.021 and 0.5045 ± 0.0024.
Regarding GTFPRNERYYHK [PHA2 C-terminal 12 aa], the protein stability index was 0.71 ± 0.0099 under setting [1] and 0.78 ± 0.021 (genetic background: wild type).
The corresponding values for GTLVLGTYLLAQ [SHH3 C-terminal 12 aa] are 0.612 ± 0.027 and 0.639 ± 0.037.
The corresponding values for GVGRIITQPQRY [HUA1 C-terminal 12 aa] are 0.7038 ± 0.0018 and 0.701 ± 0.043.
On the same counts, the results for GWYVGRYYRITR [IMD1 C-terminal 12 aa] are 0.714 ± 0.017 and 0.6944 ± 0.0055.
In the case of GYETAIHYLRMY [TPC1 C-terminal 12 aa], the protein stability index under setting [1] was 0.701 ± 0.013 and the protein stability index (genetic background: wild type) stood at 0.3927 ± 0.0037.
On the same counts, the results for HAYVIEKLPDVF [FCF1 C-terminal 12 aa] are 0.719 ± 0.0048 and 0.698 ± 0.016.
The corresponding values for “HCLSLCTIQKMI [YOR231C-A C-terminal 12 aa]” are 0.7075 ± 0.0048 and 0.159 ± 0.01.
The corresponding values for HELESINSGGAW [YMR31 C-terminal 12 aa] are 0.702 ± 0.0072 and 0.689 ± 0.0016.
As to HIDIPDFSKWDV [SUL1 C-terminal 12 aa], the protein stability index runs as follows: under setting [1], 0.7412 ± 0.0047; (genetic background: wild type) 0.718 ± 0.016.
On the same counts, the results for “HKGSHFYIQLPI [YAL034C-B C-terminal 12 aa]” are 0.7079 ± 0.0061 and 0.677 ± 0.0077.
On the same counts, the results for HKGSTLDIMSID [QNS1 C-terminal 12 aa] are 0.72 ± 0.0096 and 0.667 ± 0.025.
The corresponding values for HKSLKLAKKDKK [AGE1 C-terminal 12 aa] are 0.6837 ± 0.0037 and 0.738 ± 0.13.
Regarding HKVIAVGRIACQ [SKI7 C-terminal 12 aa], the protein stability index was 0.5897 ± 0.0016 under setting [1] and 0.611 ± 0.016 (genetic background: wild type).
The corresponding values for HPRLCVFSCMMI [YJR128W C-terminal 12 aa] are 0.6901 ± 0.0059 and 0.67 ± 0.035.
On the same counts, the results for HQVERKAVDIVL [YPR096C C-terminal 12 aa] are 0.691 ± 0.016 and 0.712 ± 0.09.
The corresponding values for HRDIVSAGSLYL [MTR4 C-terminal 12 aa] are 0.723 ± 0.034 and 0.7 ± 0.036.
Regarding HTSSKEIDLLSF [ENT3 C-terminal 12 aa], the protein stability index under setting [1] was determined as 0.721 ± 0.026 and the protein stability index (genetic background: wild type) came out at 0.7104 ± 0.0067.
On the same counts, the results for IAAFVVAVLFAF [PRY3 C-terminal 12 aa] are 0.213 ± 0.012 and 0.205 ± 0.012.
On the same counts, the results for ICRVAIWSAERI [CAT5 C-terminal 12 aa] are 0.693 ± 0.015 and 0.658 ± 0.034.
The corresponding values for IDDINNDKWLVI [PSK1 C-terminal 12 aa] are 0.725 ± 0.001 and 0.688 ± 0.041.
Regarding IDNPEACEMCSG [RNR1 C-terminal 12 aa], the protein stability index was 0.702 ± 0.022 under setting [1] and 0.694 ± 0.027 (genetic background: wild type).
The corresponding values for IEKADIVQQAIR [SLP1 C-terminal 12 aa] are 0.691 ± 0.008 and 0.66 ± 0.033.
On the same counts, the results for IFKKIRLLLHVN [MCP1 C-terminal 12 aa] are 0.615 ± 0.013 and 0.2 ± 0.03.
The corresponding values for IIFGHDNLWTVR [ALG7 C-terminal 12 aa] are 0.742 ± 0.022 and 0.767 ± 0.041.
IIQSYINLLEEN [NKP2 C-terminal 12 aa]: the protein stability index worked out at 0.708 ± 0.017 under setting [1] and 0.756 ± 0.059 (genetic background: wild type).
The corresponding values for IKAAIDRVDHSL [YKR018C C-terminal 12 aa] are 0.6778 ± 0.0045 and 0.692 ± 0.041.
Regarding IKLNKKKVKLST [HHO1 C-terminal 12 aa], the protein stability index is 0.664 ± 0.0086 under setting [1] and 0.6099 ± 0.0033 (genetic background: wild type).
In the case of IKQRELNAADKC [MAL11 C-terminal 12 aa], the protein stability index is, setting by setting: under setting [1], 0.696 ± 0.0096; (genetic background: wild type) 0.6741 ± 0.0048.
IKYNWERCFNGE [YDR521W C-terminal 12 aa]: the protein stability index is 0.71 ± 0.014 under setting [1] and 0.697 ± 0.04 (genetic background: wild type).
The corresponding values for ILLITGFKSSFT [SRL4 C-terminal 12 aa] are 0.72 ± 0.018 and 0.737 ± 0.038.
The corresponding values for ILNCVGSAKISG [YGR291C C-terminal 12 aa] are 0.668 ± 0.025 and 0.654 ± 0.02.
On the same counts, the results for ILRQYFTDLASS [REA1 C-terminal 12 aa] are 0.675 ± 0.026 and 0.696 ± 0.041.
Take IMPDRFDYENYY [TMS1 C-terminal 12 aa]: the protein stability index stood at 0.739 ± 0.0052 under setting [1] and 0.698 ± 0.0097 (genetic background: wild type).
In the case of INDWLSSWKRSK [CRR1 C-terminal 12 aa], the protein stability index by setting is: under setting [1], 0.756 ± 0.017; (genetic background: wild type) 0.727 ± 0.021.
The corresponding values for INSQTMTVTTAL [VHC1 C-terminal 12 aa] are 0.685 ± 0.039 and 0.69051 ± 0.00012.
On the same counts, the results for IPAYKKHGIQKN [OSH7 C-terminal 12 aa] are 0.694 ± 0.012 and 0.693 ± 0.038.
On the same counts, the results for IQTINEVRTNYM [RSE1 C-terminal 12 aa] are 0.69 ± 0.041 and 0.744 ± 0.11.
On to IRDILKLGHPTR [GYP8 C-terminal 12 aa], for which the protein stability index runs as follows: under setting [1], 0.699 ± 0.043; (genetic background: wild type) 0.666 ± 0.034.
The corresponding values for IREFPEYFAAQA [RPL10 C-terminal 12 aa] are 0.682 ± 0.015 and 0.671 ± 0.03.
Consider IRKYGYNLAAYT [YLR462W C-terminal 12 aa], for which the protein stability index by setting is: under setting [1], 0.6649 ± 0.00076; (genetic background: wild type) 0.6563 ± 0.0049.
On the same counts, the results for “IRRYPFLWIPFL [YMR316C-B C-terminal 12 aa]” are 0.709 ± 0.04 and 0.147 ± 0.015.
In the case of “IRYSMPYRLASN [YLR264C-A C-terminal 12 aa]”, the protein stability index is, setting by setting: under setting [1], 0.6856 ± 0.0022; (genetic background: wild type) 0.648 ± 0.019.
The corresponding values for ISKKVFGNKLHQ [MTM1 C-terminal 12 aa] are 0.709 ± 0.0014 and 0.656 ± 0.022.
On to ISLLSQFVYKGK [EXO1 C-terminal 12 aa], for which the protein stability index reads like this: under setting [1], 0.7 ± 0.016; (genetic background: wild type) 0.678 ± 0.01.
Take ISQWREWIDEKL [SRP102 C-terminal 12 aa]: the protein stability index is 0.679 ± 0.025 under setting [1] and 0.72 ± 0.029 (genetic background: wild type).
On the same counts, the results for ITKQKALDYHYL [CBS2 C-terminal 12 aa] are 0.698 ± 0.0089 and 0.667 ± 0.016.
With ITSKPPATVEWE [GUA1 C-terminal 12 aa], the protein stability index under setting [1] is 0.695 ± 0.01 and the protein stability index (genetic background: wild type) is 0.726 ± 0.015.
The corresponding values for IYKYCCCCFCCC [YCK3 C-terminal 12 aa] are 0.6598 ± 0.0038 and 0.594 ± 0.046.
On the same counts, the results for KALRELQAEMGL [SNF7 C-terminal 12 aa] are 0.696 ± 0.0095 and 0.688 ± 0.025.
KASNGHIELIGE [CRF1 C-terminal 12 aa]: the protein stability index under setting [1] stood at 0.674 ± 0.002 and the protein stability index (genetic background: wild type) came to 0.699 ± 0.034.
On the same counts, the results for KDAFLKELGLQN [PRD1 C-terminal 12 aa] are 0.69 ± 0.013 and 0.678 ± 0.028.
On the same counts, the results for KDEVTDDMQLEV [JLP2 C-terminal 12 aa] are 0.6997 ± 0.002 and 0.68 ± 0.03.
